Measured values published in US20250243292A1 (published 2025).
Where a chain is given by its changes, count along the chain named. Read-outs that look alike come from different tables or passages of the source.

T1: CD24-GST fusion protein
T1 chain: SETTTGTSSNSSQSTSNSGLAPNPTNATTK

B1: PP6368 (antibody, V domains shown)
VH: EVKFEESGGGLVQPGGSIKLSCAASGVTFSEAWMDWVRQSPEKGLEWVAEIRDKPNSYVTYYAESVKGRFTISRDDSKSRVYLQMNNLRTEDTGIYYCTGAMDYWGQGTSVTVSS
VL: DIVMTQTPLSLSVTIGQPASISCKSSQSLLYSNGKTYLNWLQQRPGQSPKRLIYQVSKLDPGIPDRFSGSGSETDFTLKISRVEAEDLGIYYCMQGTYLPWTFGGGTKLEIKR
B2: PP6236 (antibody, V domains shown)
VH: B1 VH with K54N, P55T, N56T, S57N
VL: B1 VL with T97A, Y98S
B3: PP6228 (antibody, V domains shown)
VH: B1 VH with T28A, E31G, P55T, N56K, S57N, I95V
VL: B1 VL with M94L, Y98S, L99Y
B4: PP6235 (antibody, V domains shown)
VH: B1 VH with T28A, E31G, P55T, N56K, S57N, I95V
VL: B1 VL with T97A, Y98S
B5: PP6233 (antibody, V domains shown)
VH: B1 VH with P55T, N56K, S57N
VL: B1 VL with T97A, Y98S
B6: PP6369 (antibody, V domains shown)
VH: B1 VH with T28P, E31G, P55T, N56K, S57N
VL: B1 VL
B7: PP6372 (antibody, V domains shown)
VH: B1 VH with P55Q, S57E
VL: B1 VL with T97S, Y98S
B8: PP6371 (antibody, V domains shown)
VH: B1 VH with S40T, K54R, P55E, N56T, S57K
VL: B1 VL with Y98S
B9: PP6231 (antibody, V domains shown)
VH: B1 VH with K54N, P55T, N56T, S57N
VL: B1 VL with M94L, Y98S, L99Y
B10: PP6232 (antibody, V domains shown)
VH: B1 VH with P55T, N56K, S57N
VL: B1 VL with I63T, Y98S, L99T
B11: PP6230 (antibody, V domains shown)
VH: B1 VH with P55S, N56T, S57N
VL: B1 VL with M94L, Y98S, L99Y
B12: PP6387 (antibody, V domains shown)
VH: B1 VH with P55T, N56K, S57N, S79G
VL: B1 VL with T97S, Y98S
B13: PP6226 (antibody, V domains shown)
VH: B1 VH with P55T, N56K, S57N
VL: B1 VL with M94L, Y98S, L99Y
B14: PP6370 (antibody, V domains shown)
VH: B1 VH with P55T, N56K, S57N, S79G
VL: B1 VL
B15: PP6234 (antibody, V domains shown)
VH: B1 VH with P55T, N56K, S57N
VL: B1 VL with I63T, T97A, Y98S, L99V
B16: PP6388 (antibody, V domains shown)
VH: B1 VH with S40T, K54R, P55E, N56T, S57K
VL: B1 VL
B17: PP6373 (antibody, V domains shown)
VH: B1 VH
VL: B1 VL with T97S, Y98S

Tests used:
Assay in all cases: competitive ELISA
[1] = biological target: T1, CD24-GST fusion protein
[2] = biological target: T1, CD24-GST fusion protein
[3] = biological target: T1, CD24-GST fusion protein

| Binder | IC50 [1] [µg/mL] | IC50 [2] [µg/mL] | IC50 [3] [µg/mL] |
| --- | --- | --- | --- |
| B1 | 0.0299 |  |  |
| B2 | 0.0336 |  |  |
| B3 |  | 0.0888 |  |
| B4 | 0.0419 | 0.0411 | 0.0415 |
| B5 |  | 0.0372 |  |
| B6 | 0.0611 |  |  |
| B7 | 0.0269 |  | 0.0268 |
| B8 | 0.0345 |  |  |
| B9 |  | 0.0768 |  |
| B10 |  | 0.0713 |  |
| B11 |  | 0.0589 |  |
| B12 |  |  | 0.0284 |
| B13 | 0.0856 | 0.0814 | 0.0834 |
| B14 | 0.0642 |  |  |
| B15 |  | 0.0426 |  |
| B16 |  |  | 0.0249 |
| B17 |  |  | 0.0207 |
